Test results from paper PMC6821326 (Nucleic Acids Research, 2019).

Biological target: T1, wild-type YoeB toxin, YoeB(His)6 (Escherichia coli, UniProt P69348)
T1 sequence: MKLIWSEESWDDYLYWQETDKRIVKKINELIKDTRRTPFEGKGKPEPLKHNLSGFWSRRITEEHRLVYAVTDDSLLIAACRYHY
Test: pull-down

B1: YefM antitoxin (natural protein)
chain: MRTISYSEARQNLSATMMKAVEDHAPILITRQNGEACVLMSLEEYNSLEETAYLLRSPANARRLMDSIDSLKSGKGTEKDIIE
B1: binds.
